Patent US20240132622A1 (Bristol-Myers Squibb, published 2024)

Columns and labels:
recombinant human PAD4 [1] = molecular target: T1, recombinant human PAD4 (human, UniProt Q9UM07 1-663); experiment: cell-based or functional assay
recombinant human PAD4 [2] = molecular target: T1, recombinant human PAD4; experiment: cell-based or functional assay; remark: listed apart in the source
recombinant human PAD4 [3] = molecular target: T1, recombinant human PAD4; experiment: SPR 37 C, captured antibody, PAD4 analyte, 2 mM EDTA
Experimental: (§1) For SPR measurements, either an anti-human capture surface or Protein A surface (Cytiva catalog #29127555) was used. Anti-human capture surface was prepared by immobilizing anti-human capture antibody (Cytiva catalog #29234600) onto flow cells of a CM5 or CM4 biosensor following the manufacturer's amine coupling protocol (Cytiva catalog #BR-1006-33). SPR experiments were conducted at 37° C. using HBS-P (150 mM NaCl, 10 mM HEPES, pH 7.6, 0.05% Tween-20) (TEKNOVA catalog #H8032) with additional 150 mM NaCl and 1 mM or 2 mM CaCl₂) (see Table 2) or 2 mM EDTA (see Table 3) as running buffer. Antibodies were diluted to 1.5 μg/mL in the running buffer, and were captured across active biosensor flow cells at 10 μL/min for 15 to 30 seconds. […] The association and dissociation of the antibodies with PAD4 were measured. One 30 second injection followed by one 15 second injection of 10 mM glycine pH 1.5 was used to regenerate the Protein A capture surface between assay cycles. For anti-human capture surface, two 30 second injections of 3 M MgCl₂ was used for regeneration. SPR measurements for mAb20 and mAb 13 SPR were done in the presence of 2 mM CaCl₂). The remaining antibodies were tested in the presence of 1 mM CaCl₂).
(§2) Rate constants kₒₙ and koff were derived from reference flow cell- and 0 nM blank-subtracted sensorgrams, and were fit to a 1:1 binding model in Biacore® Insight Evaluation software version 3.0.12.15655. Deviations from 1:1 binding model were observed, which may be caused by increased dimerization of PAD4 at higher concentrations. The equilibrium dissociation constant, KD, was calculated as the ratio of rate constants koff/kₒₙ for each PAD4 antibody. For those antibodies that were tested in multiple SPR experiments, the average value and standard deviation from two or three separate experiments are listed in Tables 2 and 3.

recombinant human PAD4 [4] = molecular target: T1, recombinant human PAD4; experiment: SPR 37 C, captured antibody, PAD4 analyte, 1 mM CaCl2
Experimental: Their binding to human PAD4 was measured by Surface Plasmon Resonance (SPR). SPR measurements were performed with a Biacore® 8K, 8K+, or T200 instrument (Cytiva). The association rate constants, kₒₙ, dissociation rate constants, koff, and equilibrium dissociation constants, KD, of the antibodies with PAD4 were determined from these SPR measurements.
as §1
as §2, with “antibody.” for “antibody. For those antibodies that were tested in multiple SPR experiments, the average value and standard deviation from two or three separate experiments are listed in Tables 2 and 3.”

[5] = molecular target: extracellular matrix (ECM) proteins; experiment: ECM plate ELISA (Matrigel), 1 uM antibody, A450 over wells without sample
recombinant human PAD4 [6] = molecular target: T1, recombinant human PAD4; experiment: cell-based or functional assay; remark: listed apart in the source

T1 sequence (Q9UM07 whole entry): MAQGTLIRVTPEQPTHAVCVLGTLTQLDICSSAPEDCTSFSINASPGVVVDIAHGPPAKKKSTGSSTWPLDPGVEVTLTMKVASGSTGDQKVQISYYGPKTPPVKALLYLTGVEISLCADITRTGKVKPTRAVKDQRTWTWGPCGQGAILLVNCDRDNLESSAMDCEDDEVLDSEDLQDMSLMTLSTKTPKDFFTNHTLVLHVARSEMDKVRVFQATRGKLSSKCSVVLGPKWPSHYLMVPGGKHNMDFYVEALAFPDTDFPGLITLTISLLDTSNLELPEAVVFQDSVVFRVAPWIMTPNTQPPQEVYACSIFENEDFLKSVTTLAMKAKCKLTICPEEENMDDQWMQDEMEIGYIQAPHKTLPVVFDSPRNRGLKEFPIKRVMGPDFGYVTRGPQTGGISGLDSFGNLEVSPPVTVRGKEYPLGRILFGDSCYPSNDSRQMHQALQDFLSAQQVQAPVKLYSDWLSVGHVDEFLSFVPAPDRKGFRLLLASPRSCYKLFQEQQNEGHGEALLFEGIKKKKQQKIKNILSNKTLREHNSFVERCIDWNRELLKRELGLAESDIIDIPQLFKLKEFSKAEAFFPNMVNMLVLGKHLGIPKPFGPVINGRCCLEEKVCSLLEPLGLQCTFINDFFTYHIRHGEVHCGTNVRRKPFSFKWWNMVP

Row | Binder | IC50 (average), PAD4 citrullination of peptide …, RapidFire MS (recombinant human PAD4 [2]) | Kd (recombinant human PAD4 [3]) | koff (recombinant human PAD4 [3]) | kon (recombinant human PAD4 [3]) | Kd (recombinant human PAD4 [4]) | koff (recombinant human PAD4 [4]) | kon (recombinant human PAD4 [4]) | ECM Score (1 µM) [5] | also measured
1 | hz13-5 (antibody, IgG1, V domains shown, also called clone 13-based hz13-5 antibody; parent hz13-5) VH: EVLLVQSGAEVKKPGASVKLSCTSSDFNIKDHFIHWVRQAPGKGLEWMGRIDPEDDETKYAPKFQDRVTMTADTSTDTAYMELSSLRSEDTAVFYCAGYGNYEGAMDYWGQGTLVTVSS VL: DIQMTQSPSSLSASVGDRVTITCRASENVNNYGIGFMNWFQQKPGKAPKLLIYAASRRGSGVPSRFSGSGSGTDFTLTISSLQPEDFATYFCQQSKEVPYTFGQGTKVEIK | 48200 pM | 100 pM | 0.00021 s⁻¹ | 2.1e+06 M⁻¹ s⁻¹ | 100 pM | 0.00012 s⁻¹ | 1.6e+06 M⁻¹ s⁻¹ | 1 | IC50, citrulline ELISA on peptide …, 13.5 nM rhPAD4 (recombinant human PAD4 [1]): 700 pM; IC50, citrulline ELISA on peptide …, 108 nM rhPAD4 (recombinant human PAD4 [1]): 5020 pM
2 | hz13-5 D31E (antibody, V domains shown, IgG1.3f; also called clone 13-based hz13-5 D31E) VH: EVLLVQSGAEVKKPGASVKLSCTSSDFNIKEHFIHWVRQAPGKGLEWMGRIDPEDDETKYAPKFQDRVTMTADTSTDTAYMELSSLRSEDTAVFYCAGYGNYEGAMDYWGQGTLVTVSS VL: DIQMTQSPSSLSASVGDRVTITCRASENVNNYGIGFMNWFQQKPGKAPKLLIYAASRRGSGVPSRFSGSGSGTDFTLTISSLQPEDFATYFCQQSKEVPYTFGQGTKVEIKR | – | 306 pM | 0.000358 s⁻¹ | 1.17e+06 M⁻¹ s⁻¹ | 147 pM | 0.000171 s⁻¹ | 1.32e+06 M⁻¹ s⁻¹ | – | mean IC50, PAD4 driven H3 citrullination (ELISA), 13.5 nM PAD4, with 100 ug/ml purified IgG of NHV sera (n=6) (recombinant human PAD4 [1]): 9000 pM; mean IC50, PAD4 driven H3 citrullination (ELISA), 13.5 nM PAD4, with 100 ug/ml purified IgG of RA sera (n=21) (recombinant human PAD4 [1]): 8200 pM; IC50 run 1, citrulline ELISA on peptide …, 13.5 nM rhPAD4 (recombinant human PAD4 [6]): 340 pM; IC50 run 1, citrulline ELISA on peptide …, 27 nM rhPAD4 (recombinant human PAD4 [6]): 1770 pM; IC50 run 1, citrulline ELISA on peptide …, 54 nM rhPAD4 (recombinant human PAD4 [6]): 3130 pM; IC50 run 1, citrulline ELISA on peptide …, 108 nM rhPAD4 (recombinant human PAD4 [6]): 6030 pM; IC50 run 2, citrulline ELISA on peptide …, 13.5 nM rhPAD4 (recombinant human PAD4 [6]): 730 pM; IC50 run 2, citrulline ELISA on peptide …, 27 nM rhPAD4 (recombinant human PAD4 [6]): 1260 pM; IC50 run 2, citrulline ELISA on peptide …, 54 nM rhPAD4 (recombinant human PAD4 [6]): 3140 pM; IC50 run 2, citrulline ELISA on peptide …, 108 nM rhPAD4 (recombinant human PAD4 [6]): 4290 pM; IC50 run 3, citrulline ELISA on peptide …, 13.5 nM rhPAD4 (recombinant human PAD4 [6]): 370 pM; IC50 run 3, citrulline ELISA on peptide …, 27 nM rhPAD4 (recombinant human PAD4 [6]): 890 pM; IC50 run 3, citrulline ELISA on peptide …, 54 nM rhPAD4 (recombinant human PAD4 [6]): 2680 pM; IC50 run 3, citrulline ELISA on peptide …, 108 nM rhPAD4 (recombinant human PAD4 [6]): 4650 pM
3 | hz13-4 (antibody, V domains shown, light constant region not tied to this antibody) VH: EVLLVQSGAEVKKPGASVKLSCTSSDFNIKDHFIHWVRQAPGKGLEWMGRIDPEDDETKYAPKFQDRVTMTADTSTDTAYMELSSLRSEDTAVFYCAGYGNYEGAMDYWGQGTLVTVSS VL: DIQMTQSPSSLSASVGDRVTITCRASENVNNYGIGFMNWYQQKPGKAPKLLIYAASRRGSGVPSRFSGSGSGTDFTLTISSLQPEDFATYYCQQSKEVPYTFGQGTKVEIK | 115000 pM | 200 pM | 0.00032 s⁻¹ | 1.4e+06 M⁻¹ s⁻¹ | 100 pM | 0.00013 s⁻¹ | 930000 M⁻¹ s⁻¹ | 1 | –
4 | hz13-8 (antibody, V domains shown, light constant region not tied to this antibody) VH: EVLLVQSGAEVKKPGASVKLSCTSSDFNIKDHFIHWVRQAPGKGLEWIGRIDPEDDETKYAPKFQDRVTITADTSTDTAYLELSSLRSEDTAVFYCAGYGNYEGAMDYWGQGTLVTVSS VL: DIQMTQSPSSLSASVGDRVTITCRASENVNNYGIGFMNWFQQKPGKAPKLLIYAASRRGSGVPSRFSGSGSGTDFTLTISSLQPEDFATYFCQQSKEVPYTFGQGTKVEIK | 62800 pM | 100 pM | 0.00016 s⁻¹ | 1.9e+06 M⁻¹ s⁻¹ | 100 pM | 0.00014 s⁻¹ | 1.7e+06 M⁻¹ s⁻¹ | 2 | –

Continued, in another order:

Row | IC50 (average), PAD4 citrullination of peptide …, RapidFire MS (recombinant human PAD4 [2]) | Kd (recombinant human PAD4 [3]) | koff (recombinant human PAD4 [3]) | kon (recombinant human PAD4 [3]) | Kd (recombinant human PAD4 [4]) | koff (recombinant human PAD4 [4]) | kon (recombinant human PAD4 [4]) | ECM Score (1 µM) [5] | Binder | also measured
5 | 76000 pM | 100 pM | 0.00019 s⁻¹ | 2e+06 M⁻¹ s⁻¹ | 100 pM | 0.00016 s⁻¹ | 2e+06 M⁻¹ s⁻¹ | 2 | hz13-9 (antibody, V domains shown, light constant region not tied to this antibody) VH: EVLLVQSGAEVKKPGASVKLSCTSSDFNIKDHFIHWVRQAPGKGLEWIGRIDPEDDETKYAPKFQDRVTITADTSTDTAYLELSSLRSEDTAVFYCAGYGNYEGAMDYWGQGTLVTVSS VL: DIVMTQSPSSLSASVGDRVTLTCRASENVNNYGIGFMNWFQQKPGKAPKLLIYAASRRGSGVPSRFSGSGSGTDFTLTISSMQPEDFATYFCQQSKEVPYTFGQGTKLEIK | –
6 | 39100 pM | 100 pM | 0.00023 s⁻¹ | 1.7e+06 M⁻¹ s⁻¹ | 100 pM | 0.00012 s⁻¹ | 1.6e+06 M⁻¹ s⁻¹ | 1 | hz13-6 (antibody, V domains shown, light constant region not tied to this antibody) VH: EVLLVQSGAEVKKPGASVKLSCTSSDFNIKDHFIHWVRQAPGKGLEWMGRIDPEDDETKYAPKFQDRVTMTADTSTDTAYMELSSLRSEDTAVFYCAGYGNYEGAMDYWGQGTLVTVSS VL: DIVMTQSPSSLSASVGDRVTLTCRASENVNNYGIGFMNWFQQKPGKAPKLLIYAASRRGSGVPSRFSGSGSGTDFTLTISSMQPEDFATYFCQQSKEVPYTFGQGTKLEIK | –
7 | 170000 pM | 100 pM | 0.00025 s⁻¹ | 2e+06 M⁻¹ s⁻¹ | 100 pM | 0.00015 s⁻¹ | 1.2e+06 M⁻¹ s⁻¹ | 1 | hz13-7 (antibody, V domains shown, light constant region not tied to this antibody) VH: EVLLVQSGAEVKKPGASVKLSCTSSDFNIKDHFIHWVRQAPGKGLEWIGRIDPEDDETKYAPKFQDRVTITADTSTDTAYLELSSLRSEDTAVFYCAGYGNYEGAMDYWGQGTLVTVSS VL: DIQMTQSPSSLSASVGDRVTITCRASENVNNYGIGFMNWYQQKPGKAPKLLIYAASRRGSGVPSRFSGSGSGTDFTLTISSLQPEDFATYYCQQSKEVPYTFGQGTKVEIK | –
8 | 96400 pM | 100 pM | 0.00025 s⁻¹ | 2e+06 M⁻¹ s⁻¹ | 100 pM | 0.00012 s⁻¹ | 1.7e+06 M⁻¹ s⁻¹ | 1 | hz13-2 (antibody, V domains shown, light constant region not tied to this antibody) VH: EVQLVQSGAEVKKPGASVKVSCTSSDFNIKDHFIHWVRQAPGKGLEWMGRIDPEDDETKYAPKFQDRVTMTADTSTDTAYMELSSLRSEDTAVYYCAGYGNYEGAMDYWGQGTLVTVSS VL: DIQMTQSPSSLSASVGDRVTITCRASENVNNYGIGFMNWFQQKPGKAPKLLIYAASRRGSGVPSRFSGSGSGTDFTLTISSLQPEDFATYFCQQSKEVPYTFGQGTKVEIK | –
9 | 23300 pM | 100 pM | 0.00021 s⁻¹ | 1.9e+06 M⁻¹ s⁻¹ | 100 pM | 0.00013 s⁻¹ | 1.5e+06 M⁻¹ s⁻¹ | 1 | hz13-3 (antibody, V domains shown, light constant region not tied to this antibody) VH: EVQLVQSGAEVKKPGASVKVSCTSSDFNIKDHFIHWVRQAPGKGLEWMGRIDPEDDETKYAPKFQDRVTMTADTSTDTAYMELSSLRSEDTAVYYCAGYGNYEGAMDYWGQGTLVTVSS VL: DIVMTQSPSSLSASVGDRVTLTCRASENVNNYGIGFMNWFQQKPGKAPKLLIYAASRRGSGVPSRFSGSGSGTDFTLTISSMQPEDFATYFCQQSKEVPYTFGQGTKLEIK | –
